This is an account of results in IntAct's records for PubMed 26235031.

B1: Leucine-rich repeat transmembrane protein FLRT3 (Mus musculus), Q8BGT1 (parent)
chain: MISPAWSLFLIGTKIGLFFQVAPLSVVAKSCPSVCRCDAGFIYCNDRSLTSIPVGIPEDATTLYLQNNQINNVGIPSDLKNLLKVQRIYLYHNSLDEFPTNLPKYVKELHLQENNIRTITYDSLSKIPYLEELHLDDNSVSAVSIEEGAFRDSNYLRLLFLSRNHLSTIPGGLPRTIEELRLDDNRISTISSPSLHGLTSLKRLVLDGNLLNNHGLGDKVFFNLVNLTELSLVRNSLTAAPVNLPGTSLRKLYLQDNHINRVPPNAFSYLRQLYRLDMSNNNLSNLPQGIFDDLDNITQLILRNNPWYCGCKMKWVRDWLQSLPVKVNVRGLMCQAPEKVRGMAIKDLSAELFDCKDSGIVSTIQITTAIPNTAYPAQGQWPAPVTKQPDIKNPKLIKDQRTTGSPSRKTILITVKSVTPDTIHISWRLALPMTALRLSWLKLGHSPAFGSITETIVTGERSEYLVTALEPESPYRVCMVPMETSNLYLFDETPVCIETQTAPLRMYNPTTTLNREQEKEPYKNPNLPLAAIIGGAVALVSIALLALVCWYVHRNGSLFSRNCAYSKGRRRKDDYAEAGTKKDNSILEIRETSFQMLPISNEPISKEEFVIHTIFPPNGMNLYKNNLSESSSNRSYRDSGIPDSDHSHS
B2: Adhesion G protein-coupled receptor L3 (Mus musculus), Q80TS3 (parent)
chain: MWPPQLLILTMLLAPVVHGGKHNERHPALAAPLRHAERSPGGALPPRHLLQQPAAERSTAHRGQGPRGAARGVRGPGAPGAQIAAQAFSRAPIPMAVVRRELSCESYPIELRCPGTDVIMIESANYGRTDDKICDSDPAQMENIRCYLPDAYKIMSQRCNNRTQCAVVAGPDVFPDPCPGTYKYLEVQYECVPYKVEQKVFLCPGLLKGVYQSEHLFESDHQSGAWCKDPLQASDKIYYMPWTPYRTDTLTEYSSKDDFIAGRPTTTYKLPHRVDGTGFVVYDGALFFNKERTRNIVKFDLRTRIKSGEAIIANANYHDTSPYRWGGKSDIDLAVDENGLWVIYATEQNNGKIVISQLNPYTLRIEGTWDTAYDKRSASNAFMICGILYVVKSVYEDDDNEATGNKIDYIYNTDQSKDSLVDVPFPNSYQYIAAVDYNPRDNLLYVWNNYHVVKYSLDFGPLDSRSGPVHHGQVSYISPPIHLDSELERPPVRGISTTGSLGMGSTTTSTTLRTTTWNIGRSTTASLPGRRNRSTSTPSPAVEVLDDVTTHLPSAASQIPAMEESCEAVEAREIMWFKTRQGQVAKQPCPAGTIGVSTYLCLAPDGIWDPQGPDLSNCSSPWVNHITQKLKSGETAANIARELAEQTRNHLNAGDITYSVRAMDQLVGLLDVQLRNLTPGGKDSAARSLNKLQKRERSCRAYVQAMVETVNNLLQPQALNAWRDLTTSDQLRAATMLLDTVEESAFVLADNLLKTDIVRENTDNIQLEVARLSTEGNLEDLKFPENMGHGSTIQLSANTLKQNGRNGEIRVAFVLYNNLGPYLSTENASMKLGTEAMSTNHSVIVNSPVITAAINKEFSNKVYLADPVVFTVKHIKQSEENFNPNCSFWSYSKRTMTGYWSTQGCRLLTTNKTHTTCSCNHLTNFAVLMAHVEVKHSDAVHDLLLDVITWVGILLSLVCLLICIFTFCFFRGLQSDRNTIHKNLCISLFVAELLFLIGINRTDQPIACAVFAALLHFFFLAAFTWMFLEGVQLYIMLVEVFESEHSRRKYFYLVGYGMPALIVAVSAAVDYRSYGTDKVCWLRLDTYFIWSFIGPATLIIMLNVIFLGIALYKMFHHTAILKPESGCLDNINYEDNRPFIKSWVIGAIALLCLLGLTWAFGLMYINESTVIMAYLFTIFNSLQGMFIFIFHCVLQKKVRKEYGKCLRTHCCSGKSTESSIGSGKTSGSRTPGRYSTGSQSRIRRMWNDTVRKQSESSFITGDINSSASLNREGLLNNARDTSVMDTLPLNGNHGNSYSIAGGEYLSNCVQIIDRGYNHNETALEKKILKELTSNYIPSYLNNHERSSEQNRNMMNKLVNNLGSGSEDDAIVLDDAASFNHEESLGLELIHEESDAPLLPPRVYSTDNHQPHHYSRRRFPQDHSESFFPLLTDEHTEDLQSPHRDSLYTSMPALAGVPAADSVTTSTQTEAAAAKGGDAEDVYYKSMPNLGSRNHVHPLHAYYQLGRGSSDGFIVPPNKDGASPEGTSKGPAHLVTSL
partner: B1 chain

The variants in one assay derive from B1. The settings on record: with agrl3_mouse Adgrl3, Q80TS3.
With F160N, the “effect of a mutation on the interaction” value was “disrupting interaction strength”.

On to F160A, for which the “effect of a mutation on the interaction” value is listed as “decreasing interaction strength”. Still for that read-out and setting: next, R117T: “decreasing interaction strength”.

Variants of B2 are the subject of another assay. The settings on record: with flrt3_mouse Flrt3, Q8BGT1.
On to Y323A, for which the “effect of a mutation on the interaction” value is “disrupting interaction strength”.

Consider D332A, for which the “effect of a mutation on the interaction” value is listed as “decreasing interaction strength”.
